Data taken from patent publication US20260184814A1 (HUMABS BIOMED, published 2026).

Columns and labels:
[1] = target: N2 neuraminidase from A/Leningrad/134/17/57 (Influenza A virus A/Leningrad/134/17/57, UniProt Q67214 1-469); test: flow cytometry, NA transiently expressed on Expi-CHO cells
[2] = target: T1, N2 neuraminidase from A/Washington/01/2007 (Influenza A virus A/Washington/01/2007); test: as above
T1 construct: whole, on cells

[3] = target: IBV neuraminidase from B/Lee/10/1940 (Ancestral) (Influenza B virus B/Lee/10/1940, UniProt P03474 1-466); test: as above
[4] = target: N9 neuraminidase from A/Anhui/1/2013 (Influenza A virus A/Anhui/1/2013 (H7N9)); test: as above
[5] = target: N6 neuraminidase from A/swine/Ontario/01911/1/99 (Influenza A virus …); test: as above
[6] = target: N8 A/HARBOR SEAL/NEW …/179629/2011 (Influenza A virus); test: as above
[7] = target: N1; test: Bio-Layer Interferometry (BLI); printed as kdis
[8] = target: N1; test: Bio-Layer Interferometry (BLI)
[9] = target: N1; test: ELISA on N1 NA

B1: FNI3 (antibody, V domains shown)
VH: QVQLVQSGAEVKRPGSSVKVSCKASGATFSNNVIAWVRQAPGQGLEWMGGIHPISATATYAQKFQGRVAIAADELTSTAYMELNGLRSEDSAVYYCARAGSDYFNRDLGWENYYFDSWGQGTLVTVSS
VL: EILMTQSPATLSVSPGERATLSCRASQDVSGNLAWYQQRPGQAPRLLIYGASTRATGVPARFTGAGSGTEFTLTISSLQSEDFALYYCQHYNNWPPWTFGQGTKVEIK
- lowest concentration at which binding was observed (EC50 scale class) [1]: 0.4 µg/mL
- lowest concentration at which binding was observed (EC50 scale class) [2]: 10 µg/mL
- lowest concentration at which binding was observed (EC50 scale class) [3]: 0.4 µg/mL
- lowest concentration at which binding was observed (EC50 scale class) [4]: 0.4 µg/mL
- lowest concentration at which binding was observed (EC50 scale class) [5]: 0.4 µg/mL
- lowest concentration at which binding was observed (EC50 scale class) [6]: 50 µg/mL
- koff [7]: < 1e-07 s⁻¹
- Kd [8]: < 1 pM
- kon [8]: 39500 M⁻¹ s⁻¹
- EC50 (read off the curve) [9]: ~0.007 µg/mL
